Earlier results on one substance are cited in paper PMC8712716.

Targets include TGF-beta1 (Homo sapiens) (UniProt P01137); TNF-alpha (Homo sapiens) (UniProt P01375); TGF-beta2 (Homo sapiens) (UniProt P61812); FGF-2 (Homo sapiens) (UniProt P09038); GRP78 (Homo sapiens) (UniProt P11021); NGF-beta (Homo sapiens) (UniProt P01138).

alpha-2-macroglobulin, sequence (P01023 24-1474): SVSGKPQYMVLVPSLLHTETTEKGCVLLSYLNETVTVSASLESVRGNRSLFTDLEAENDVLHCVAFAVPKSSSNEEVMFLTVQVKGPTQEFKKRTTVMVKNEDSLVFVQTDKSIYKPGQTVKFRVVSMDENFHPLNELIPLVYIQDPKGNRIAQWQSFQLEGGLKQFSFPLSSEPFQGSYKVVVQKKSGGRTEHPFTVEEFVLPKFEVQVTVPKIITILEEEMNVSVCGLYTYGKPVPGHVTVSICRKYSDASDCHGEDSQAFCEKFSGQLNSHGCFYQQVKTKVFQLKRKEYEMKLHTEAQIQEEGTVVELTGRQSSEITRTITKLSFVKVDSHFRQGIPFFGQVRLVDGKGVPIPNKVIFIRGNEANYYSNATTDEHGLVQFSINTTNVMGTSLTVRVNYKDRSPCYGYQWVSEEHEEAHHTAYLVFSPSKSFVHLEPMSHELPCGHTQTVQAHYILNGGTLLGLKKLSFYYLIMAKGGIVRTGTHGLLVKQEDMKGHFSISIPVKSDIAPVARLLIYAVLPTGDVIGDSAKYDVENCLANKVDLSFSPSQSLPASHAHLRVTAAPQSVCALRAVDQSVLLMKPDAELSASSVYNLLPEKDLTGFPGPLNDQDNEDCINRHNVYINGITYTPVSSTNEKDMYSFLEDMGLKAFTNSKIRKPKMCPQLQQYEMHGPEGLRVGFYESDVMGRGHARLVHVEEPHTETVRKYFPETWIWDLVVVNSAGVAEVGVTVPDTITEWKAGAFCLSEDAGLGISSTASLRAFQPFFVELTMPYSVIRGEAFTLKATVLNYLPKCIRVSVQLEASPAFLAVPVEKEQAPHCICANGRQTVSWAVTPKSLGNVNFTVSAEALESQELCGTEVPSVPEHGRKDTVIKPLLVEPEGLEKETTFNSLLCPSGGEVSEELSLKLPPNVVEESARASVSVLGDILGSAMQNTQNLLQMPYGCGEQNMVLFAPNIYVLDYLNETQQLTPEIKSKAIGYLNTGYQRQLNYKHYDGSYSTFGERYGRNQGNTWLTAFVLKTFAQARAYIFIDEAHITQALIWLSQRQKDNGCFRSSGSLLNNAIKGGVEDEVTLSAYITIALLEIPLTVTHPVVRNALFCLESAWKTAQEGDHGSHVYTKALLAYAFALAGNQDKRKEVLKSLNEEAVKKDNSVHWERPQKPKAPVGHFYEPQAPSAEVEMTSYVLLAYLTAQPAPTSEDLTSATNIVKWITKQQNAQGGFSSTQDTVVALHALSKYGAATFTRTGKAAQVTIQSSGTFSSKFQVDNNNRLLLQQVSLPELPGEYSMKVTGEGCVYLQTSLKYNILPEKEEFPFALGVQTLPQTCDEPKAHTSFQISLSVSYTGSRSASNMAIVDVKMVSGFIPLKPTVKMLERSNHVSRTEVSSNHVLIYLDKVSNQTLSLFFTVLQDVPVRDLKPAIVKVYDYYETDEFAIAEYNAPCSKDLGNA
GRP78 (Homo sapiens), sequence (P11021 19-654): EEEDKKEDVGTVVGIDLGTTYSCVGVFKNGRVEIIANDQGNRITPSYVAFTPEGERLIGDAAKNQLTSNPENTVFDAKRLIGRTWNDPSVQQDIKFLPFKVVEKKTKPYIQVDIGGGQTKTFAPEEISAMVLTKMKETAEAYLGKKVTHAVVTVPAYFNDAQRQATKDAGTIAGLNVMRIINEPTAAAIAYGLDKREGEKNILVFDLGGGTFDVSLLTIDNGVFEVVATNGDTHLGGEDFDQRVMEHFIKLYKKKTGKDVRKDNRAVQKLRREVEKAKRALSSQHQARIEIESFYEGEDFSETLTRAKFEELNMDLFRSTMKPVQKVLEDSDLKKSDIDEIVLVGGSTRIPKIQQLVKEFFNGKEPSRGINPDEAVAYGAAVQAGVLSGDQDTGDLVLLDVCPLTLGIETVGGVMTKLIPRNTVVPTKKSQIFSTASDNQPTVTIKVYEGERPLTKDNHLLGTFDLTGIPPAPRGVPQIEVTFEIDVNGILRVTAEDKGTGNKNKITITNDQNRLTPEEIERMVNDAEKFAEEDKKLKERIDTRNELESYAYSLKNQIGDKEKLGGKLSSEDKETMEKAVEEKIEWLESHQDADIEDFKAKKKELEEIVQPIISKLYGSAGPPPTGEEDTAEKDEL
TNF-alpha (Homo sapiens), sequence (P01375 77-233): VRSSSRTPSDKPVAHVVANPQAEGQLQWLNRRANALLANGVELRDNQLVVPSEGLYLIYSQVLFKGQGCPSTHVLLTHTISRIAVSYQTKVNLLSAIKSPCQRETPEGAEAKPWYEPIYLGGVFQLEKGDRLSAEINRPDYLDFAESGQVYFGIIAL
TGF-beta1 (Homo sapiens), sequence (P01137 279-390): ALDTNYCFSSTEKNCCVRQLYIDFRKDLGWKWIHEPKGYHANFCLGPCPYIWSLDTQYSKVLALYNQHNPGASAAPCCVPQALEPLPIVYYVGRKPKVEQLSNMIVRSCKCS
NGF-beta (Homo sapiens), sequence (P01138 122-241): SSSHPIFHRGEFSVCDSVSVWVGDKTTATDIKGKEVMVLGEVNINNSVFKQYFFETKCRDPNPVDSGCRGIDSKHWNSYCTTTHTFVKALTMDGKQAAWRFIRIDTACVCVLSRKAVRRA
FGF-2 (Homo sapiens), sequence (P09038 143-288): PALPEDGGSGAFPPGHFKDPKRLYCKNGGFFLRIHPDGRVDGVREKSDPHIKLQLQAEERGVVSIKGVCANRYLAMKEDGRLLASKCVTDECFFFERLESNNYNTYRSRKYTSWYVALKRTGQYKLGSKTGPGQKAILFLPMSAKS
TGF-beta2 (Homo sapiens), sequence (P61812 303-414): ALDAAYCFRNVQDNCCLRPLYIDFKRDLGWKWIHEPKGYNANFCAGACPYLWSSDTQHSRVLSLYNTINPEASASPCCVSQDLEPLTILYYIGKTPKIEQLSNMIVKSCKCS

The term Kd denotes the free concentration of one partner at which half of the binding sites on the other are occupied at equilibrium, for simple one-to-one binding. Consider “alpha-2-macroglobulin (from UniProt P01023)”, for which the Kd was 80 nM with TGF-beta1 (Homo sapiens); above 750 nM in the data set with TNF-alpha (Homo sapiens); 12 nM with TGF-beta2 (Homo sapiens); 590 nM in the data set with FGF-2 (Homo sapiens); 0.15 nM with GRP78 (Homo sapiens); 110 nM with NGF-beta (Homo sapiens).
